Experimental findings from the DeepSol protein solubility set are described below.

This data set is described as follows: soluble on expression in E. coli; label from the status in PepcDB or PDB records.
With “MSLAEPKWLQDLKEEDYIKEDFDATGKSRYTVEGIDKNDPDWLNKAAKKVHAAEGDDYVKLDAGLLTVNQINWMLRRAFGELTYVDDNNQFLWYNRPTDPNKKMLAKRTPDQVGDTMGAVHPDIRNVIPEAKKVIYALRNKIDGHDEVKMPVPNGNRHKLILHDYKRIEDDEGNYVGTYEWVQDIYPFVKYFCETTGQKLVDDPDATTGATYKRDEVDTGTGASKHEEHVEKKQEETDTSSGASEYEGHHHHHH”, the “soluble on expression in E. coli” value is “soluble”.
With “MGSDKIHHHHHHMSSICQGTWDCQNCPKAVDNAIAHIIHPRGYHQPARKCEENFILFLIRGEVLVNSQEYAGTMLRAGEFILQAIGSKFEMLAMTECECIYYRFIQPELFCDFRFNHIMKEVSSPLIYSPLKIIPELKYFLDGSKSYLSESKVCRDLLSLKRKELAFVLGYYYSDYDLASLVHPLSKYTSTFQYFILQNYKKVKTVEELAQLGGYTVSTLRRIFNNVFHEPVYEWMQARRKEGILDELLNTNNSISEICYKYGFESLPHFSNFCKKFFGASPRMLRTNKKTI”, the “soluble on expression in E. coli” value is “not soluble”.
The result for “MGSDKIHHHHHHMSSQTTALNSGVHAKKADIFCQDEARVDWHSKALWVLREKRDRAAASLPEWEQLRQLGSEMKLHTLTHLGEYLETFEKNCQANGIVVHWAKDGAEHNQIVHNILAKHQVKKLVKSKSMLTEECHLNPYLESKGIEVIDTDLGERIIQLAKQPPSHIVVPAIHLKKEEVGDLFHDKLGTEAGASDPLYLTRAARAHLREQFLSADAAMTGVNMAIADKGAVVVCTNEGNADMGANLPKLQLHSMGIDKIVPDLDSAAILLRTLARNATGQPITTYSSFYRGPQDGGEMHVIIVDNGRTDMLQDKILAESLKCIRCGGCLNTCPVYRRSGGYSYNYTIPGPIGIAVGAQADDTHSIPWACTLCGSCSYVCPTKVPLDKIIHHHRRLKAKAGKLPYGKRNYMPLVGNFMASETMLNCSMSVARTALRILPGSLLKPFSGAWGKYRELPVAPKSSFEAWFNKNRGQ” reads “not soluble”; that for “MFSQNPYESHVDVAVSAASANLRNMTNEQLISLLDDDALLESIIVNLPQVRSMPTDKESALAANKSLAEWNLAQKPRIDAAKTQTVDLYDQVKKLQGEVAVLKSQLDSVSSSKSLDTTSSLMQVAAQEADDDAEALFTQFENGEISVEIFLKQFKDKKTIAHLRKIKSDRLAALLREQTYSSYAQPTVPPPMPHAQPGYPTGNHMPGIGNIQFGSGYSGYPNISQPSAGRHPFF”, “not soluble”; that for “MSLVHNPDNTKLSDATFVIFDIETTGLHGRYDDVIEFSARKIKNNSEIDHQQFFLKIDKPIPKTITEITKITDEMLEGGIDQQQGLEKIRNYLDDCVMVAHNGINFDLPFLQTQFEKYNIKPLTNPLIDTLCLSWALNPLFSSHTLSNICSKLKLEFDDERLHRAEYDTEALKKVFFYFKKQLKEMGINTLTEIDQNLNKKCQIDLMKRVFTNTAIVYVKNQRGFQNLYEMLSIALTDHNANRPLVLASSLAKFRKSFLLTENPVQGDIFKAALTKPINELEKAIEKVDFVLISQPNAYLGYTLREGLKKELINDAIKLVIKTATKLKKLVAVASDAYFIHPWENEYYKAIVCAKGLGGKWHRHFNNKEKEQTVPEVFLHTTDEMLKRMSFLGEDIAYKLVVENTNKIVKLLDLNELVPTKNKLYPPVMQDSNQKLIDKTWKQAEKRYGKNLPKLIKERIEKEEGHHHHHH”, “soluble”.
The result for “MEKIVVIKYKDIKLKSPILIGGLPGIGNVGKIAADYIVEKLNMTKMYDIFSQYLPPQVFINDDSVVHLVRNSIYYKKMRGKHDLVILAGDFQGTTQEAQYELSYQVLQIAKEIGVSMIYTLGGYSIGKIVDKPRVLGAVTDKNLVADLEKNGVVFPKGEPGGGIVGSAGLILGLGMELFNMNGACLMGETSGYFADPKSAMEVLNVLQRQLGIKIDMSDIETRSKQIEQITGKMAEEFQNKQNKEDLGYFG” reads “soluble”; that for “QEPFHVVTPLLESWALSQVAGMPVFLKCENVQPSGSFKIRGIGHFCQEMAKKGCRHLVCSSGGNAGIAAAYAARKLGIPATIVLPESTSLQVVQRLQGEGAEVQLTGKVWDEANLRAQELAKRDGWENVPPFDHPLIWKGHASLVQELKAVLRTPPGALVLAVGGGGLLAGVVAGLLEVGWQHVPIIAMETHGAHCFNAAITAGKLVTLPDITSVAKSLGAKTVAARALECMQVCKIHSEVVEDTEAVSAVQQLLDDERMLVEPACGAALAAIYSGLLRRLQAEGCLPPSLTSVVVIVCGGNNINSRELQALKTHLGQ”, “soluble”; that for “MGSDKIHHHHHHMAVQDLLSQDEIDALLHGVDDGMVQTDIASEPGSVKSYDLTSQDRIVRGRMPTLEMINERFARYTRISMFNLLRRSADVAVGGVQVMKFGEYVHSLYVPTSLNLAKIKPLRGTALFILDAKLVFKLVDNFFGGDGRHAKIEGREFTPTELRVVRMVLDQAFIDLKEAWQAIMEVNFEYINSEVNPAMANIVGPSEAVVISTFHIELDGGGGDLHVTMPYSMIEPIREMLDAGFQSDLDDQDERWVNALKEDVLDVNVPLTTTIAQRQLPLRDILHMRPGDVIPVELSDTLVLRANGVPSFKVKLGSHKGKMALQVIEPIARR”, “not soluble”.
As for “MSLNDTALTITAVRAVLLSHRYQPGEELTWVGGTIWSWDAALVEVTLSDGTTGIGEAGAGIMAAAAVPGIVDAFRPYVLDHEFGHPLEVADHLRAYTAFWARGGMLNGVAGAIETAAVDAVAKRLGVPAYEVLGGLKRDWIESYASGGLGTTFGEVSDWAAAQIEAGFGTVKFRAMTDPDTTIKLLDHVTALLPEGIQFVIDAVQACASDPWPVDEAIRVGQKAAELGARWYEEPCQADDVAGYAAVRAAVNVPISGVESNGTVRDFAQLLDAKALDVAQPDVTFVGGPKAFAQVAELAHATGVKTVPHVWGSGVTFAANLHTVLANPYVELFEYCTLPNPLRDAMRVEEVDFRDGGIVAPTAPGLGIQLTPEIEAQFPFSPGGGHVIREGHHHHHH”, the “soluble on expression in E. coli” value is “soluble”.
As for “MGSDKIHHHHHHGCSDVNQLLGNEESVDYKSTRRGDPLSIPPDLTQANNDPRYKAPASGTATYSQFQQQGLQQQASAGQNTNVLPERADMRVERDGDLRWLVIERPPEQLFPKVVDFWTDTGFTVSVNNPQAGIIETDWAENRAKIPESWLRQVLGSVLETAWDSGEREKFRTRVERVNGHTEIYITHNQMLEKRVGSDGGQVQWTHGKEDPGLNAAMLARLMVYLGTDVDAARKLVAQAEAAPQAPKVQSVRAEGAMLVVDESFDRAWRRVGVALDSGGFAVDDRDRSAGEYFVRYVDTDTGAQNEQPGFFSRLFSSDKKAQAPQYRIRLTGSGTQTQVTVLDANGQRDSSATAQRMLSVLKDKMV”, the entry is “not soluble”.
As for “MSEPPKKPFACAICRNKSSGCHYGVLSCDACKMFFKRTYLMEKYYTCRRQESCYNMDGGNRKCKACRFKKCLEVGMNPELFSRSESQIISTNIPTQLITQDHRNAEFLQKLKILDKTRHEVFKIIDTYENPSFVDLVRQESRLSCYLRPKNISWENTERKLKPWGSLGMLLAVETIKSLDFYPKLLLSDRILLLETVTLKSFHLSVAFDSFSQKKEKILAPDGSEMFPDSLNKMDFCKDLIMRLLTTPVKPLIAMKLTETEYLLLGIIVICNPEIDGLSPSGKAIITAFLQKTINVLLQFCLINNPRSAPSRLLEIISINQILNRQFHASYKLFDALRKQWDPTMSFQKVLVESCKTRGYDLS”, the entry is “not soluble”.
As for “MGLIKAATSSVGGGLADQWLEVIEPDNMGDTTVMTKGVFVRKDDKRGSNRKGTDDVLTDGSVVHVYPNMMMLLVDGGKIIDYTAEEGYYTVKNDSAPSMFNGSLKDAIAETFSRFKFGGVTPQKQQVFYINLQEIKGIKFGTPAPLNYFDNFYNAELFLRAHGNYSIKITDPLLFYTNAIPKNQTQVDINDINEQYLAEFITALQAAINQMSADGQRISYVPSKSVELSKYMQTALDEDWRTNRGMEIVSVAVASISYTDDSTKLINMRNEGAMLSDPGVREGYVQGSLARGMEAAGKNEGGAMSGFMGVGMGMNANGNYFAQASQTNQQQMQEKQNQQNAQGATDTWTCPQCGTENTGKFCSNCGTPKPTNEKPKLEMKCSECSEIVDLSNGIPKFCPHCGKPFQGVPL”, the entry is “not soluble”.
As for “MKHVPIRMCVACRRRRPKGELLRILVTEEGFVIDPSGKRPGRGAYVCPDSPECRSEKRLRRFAGAKARALAEALAAYLGGEDGQGKDLPAG”, the “soluble on expression in E. coli” value is on record as “soluble”.
“SFAAEITLTTPDNFALKADYYPSKNSVKPANNRAVLMLHQCNYNRTMYNNIGAQLAQQSIHALSLDFRGFGESISSEFNVADVRKLPQAERGKAWSNMSSHWPEDVQLAFDYLKEKVGNNGKVGIIGASCGGSQAINLAEKENISAISFFSSSQRDENIARYGKTLVDTPTLIIASEDDGRTFTSAQQLFSTAKNPSSKMISYKGSMHGYPLLASDKALETTIVTWFSNEL”: the “soluble on expression in E. coli” value is on record as “not soluble”.
In the case of “MSAFSAINEEREIERDEFTPGIEPQATWCPGCGDFGVLKALKQAMPEVGKNPDEVALFTGIGCSGKLNSYFNSYGFHTIHGRSLPVARAAKLANPNLEVIAAGGDGDGYGIGGNHTIHTARENHDMTYIVFNNEIFGLTKGQTSPTSPKGHKSKTQPHGSAKSPIRPLSQQLNAGATYIARTAAVNPNQAKEIIAEAIEHDGFAHIDFLTQCPTWNKDAKHYVPYTDVQQSDEFDFDVSDRAEAAEMMRKTEERLYEGEVLTGRMYIEDERPSYGEEKRQIGEMPEEPLAERYFDEDAEWERTYDNLLEHHK”, the “soluble on expression in E. coli” value is recorded as “not soluble”.
In the case of “MNEFEKLLEESIASPEEFKRGQVVKGRVVKVAGDTVFVDIGYKTEAVISKEEVPEVQEGQEIEAVLVRFSPRIPNPVLSVKPLQEKKELEKLKEAYLNKSDVVGKIEKKVKGGFIVDFEGVKAFLPMSQAGKKLKEGQVLTFKVLDFKLDSKRPQIIVSHKAYLDEQREKRKQELLNTLKPGDVVEGKVVKIDPNKGVTLVIEGVLRAFLPKEELSWGRDKNPYNYTDVGETLKVKVKRVDKQKGFIIVSLRELKGNPWEKFLKEHKEGDVIEGRVVAVTPKGVVVEVMEGVEGFVPEEELAWEGKPEFKKGDLVKAKIMKIDPKRRRLILSIKRAQPRPWEIFLQKHPVGSKVKGKVIKIEGSRAIVELEDGVKGVIHRSDLSWTRPKRVEEVLKEGEEREFAVLGLEGKYVKLGLKQLTENPWEKVKEKYKVGDVVKLPVKELAPFGAFLEFPEGVEGLLPFSEVPRHIRIRKGQEYEVKIIDINPKEGKITFSINALYGEKPEEKEEKVEEVTTATTGGFKLGEILKKRWKL”, the “soluble on expression in E. coli” value was “not soluble”.
As for “MAAERVFISPAKYVQGKNVITKIANYLEGIGNKTVVIADEIVWKIAGHTIVNELKKGNIAAEEVVFSGEASRNEVERIANIARKAEAAIVIGVGGGKTLDTAKAVADELDAYIVIVPTAASTDAPTSALSVIYSDDGVFESYRFYKKNPDLVLVDTKIIANAPPRLLASGIADALATWVEARSVIKSGGKTMAGGIPTIAAEAIAEKCEQTLFKYGKLAYESVKAKVVTPALEAVVEANTLLSGLGFESGGLAAAHAIHNGFTALEGEIHHLTHGEKVAFGTLVQLALEEHSQQEIERYIELYLCLDLPVTLEDIKLKDASREDILKVAKAATAEGETIHNAFNVTADDVADAIFAADQYAKAYKEKHRK”, the entry is “soluble”.
The result for “MKQLYATIRFNGYEEAADKGDLAVHKLVAAALDDAEASLKDLFAQQIFGDGTGNSGKDLTGLKAYVDDGTAVAVYGGIDRATNPWWKANVKKSANNKVLDIKQMREVFAKCSRGGMENKPDFIVTDLNTWLQYAELVDGKTTIQQPLGKVAEEFANLGFAQLSFMGIPVVYDEYCPAYTMYFINSNTFQLYGKPGRMFTTSEIVKIPDEDSKVGQIFFAGEFVGTEPRANGRLDLTVS” reads “not soluble”.
